Target: HLA-A*02:01 (Homo sapiens, UniProt P04439, D140Y/D185E/D98H/E176V/E277Q/G131W/G231S/I119V/I121R/I166T/I218V/L300P/L318F/N151K/N90K/P208A/P217A/Q86G/Q94H/R138H/R169H/T345S)
Assay: MHC binding assay (UV-ligand exchange, beta2m ELISA)
Settings: binding to HLA-A*02:01, β2m ELISA
From the text: Candidate peptides for T cell based therapies according to the present invention were further tested for their MHC binding capacity (affinity). The individual peptide-MHC complexes were produced by UV-ligand exchange, where a UV-sensitive peptide is cleaved upon UV-irradiation, and exchanged with the peptide of interest as analyzed. Only peptide candidates that can effectively bind and stabilize the peptide-receptive MHC molecules prevent dissociation of the MHC complexes. To determine the yield of the exchange reaction, an ELISA was performed based on the detection of the light chain (β2m) of stabilized MHC complexes. The assay was performed as generally described in Rodenko et al. (Rodenko et al., 2006).
96 well MAXISorp plates (NUNC) were coated over night with 2 ug/ml streptavidin in PBS at room temperature, washed 4× and blocked for 1 h at 37° C. in 2% BSA containing blocking buffer. Refolded HLA-A*02:01/MLA-001 monomers served as standards, covering the range of 15-500 ng/ml. Peptide-MHC monomers of the UV-exchange reaction were diluted 100 fold in blocking buffer. Samples were incubated for 1 h at 37° C., washed four times, incubated with 2 ug/ml HRP conjugated anti-β2m for 1 h at 37° C., washed again and detected with TMB solution that is stopped with […]. Absorption was measured at 450 nm. Candidate peptides that show a high exchange yield (preferably higher than 50%, most preferred higher than 75%) are generally preferred for a generation and production of antibodies or fragments thereof, and/or T cell receptors or fragments thereof, as they show sufficient avidity to the MHC molecules and prevent dissociation of the MHC complexes.

Substance	Peptide exchange (MHC class I binding score, peptide exchange yield)
122 (SIIDTELKV; listed as Homo sapiens) [compound 122]	+++ (≧50 = +++)
169 (ALADLSVAV; listed as Homo sapiens) [compound 169]	+++ (≧50 = +++)
271 (VLIEYNFSI; listed as Homo sapiens) [compound 271]	+++ (≧50 = +++)
80 (VLTGQVHEL; listed as Homo sapiens) [compound 80]	+++ (≧50 = +++)
93 (RLYGYFHDA; listed as Homo sapiens) [compound 93]	++ (≧20% = ++)
144 (FLISQTPLL; listed as Homo sapiens) [compound 144]	+++ (≧50 = +++)
51 (LDSEALLTL; listed as Homo sapiens) [compound 51]	++ (≧20% = ++)
278 (VLEDKVLSV; listed as Homo sapiens) [compound 278]	+++ (≧50 = +++)
11 (LLDPKTIFL; listed as Homo sapiens) [compound 11]	+++ (≧50 = +++)
200 (IMPTFDLTKV; listed as Homo sapiens) [compound 200]	+++ (≧50 = +++)
123 (QTAPEEAFIKL; listed as Homo sapiens) [compound 123]	+ (≧10% = +)
7 (ALLQALMEL; listed as Homo sapiens) [compound 7]	+++ (≧50 = +++)
49 (KLIGNIHGNEV; listed as Homo sapiens) [compound 49]	++ (≧20% = ++)
193 (ALFHMNILL; listed as Homo sapiens) [compound 193]	+++ (≧50 = +++)
173 (RLIDIYKNV; listed as Homo sapiens) [compound 173]	+++ (≧50 = +++)
138 (GIINKLVTV; listed as Homo sapiens) [compound 138]	++ (≧20% = ++)
128 (SILTNISEV; listed as Homo sapiens) [compound 128]	++ (≧20% = ++)
286 (FLTEMVHFI; listed as Homo sapiens) [compound 286]	+++ (≧50 = +++)
211 (LLTTVLINA; listed as Homo sapiens) [compound 211]	+++ (≧50 = +++)
107 (RVLPGQAVTGV; listed as Homo sapiens) [compound 107]	++ (≧20% = ++)
164 (MLIIRVPSV; listed as Homo sapiens) [compound 164]	+++ (≧50 = +++)

Substance	Peptide exchange (MHC class I binding score, peptide exchange yield)
203 (FLFVDPELV; listed as Homo sapiens) [compound 203]	++ (≧20% = ++)
36 (TVLQELINV; listed as Homo sapiens) [compound 36]	+++ (≧50 = +++)
239 (VIIKGLEEITV; listed as Homo sapiens) [compound 239]	+++ (≧50 = +++)
21 (YLMDDFSSL; listed as Homo sapiens) [compound 21]	+++ (≧50 = +++)
22 (LMYPYIYHV; listed as Homo sapiens) [compound 22]	+++ (≧50 = +++)
13 (RLHDENILL; listed as Homo sapiens) [compound 13]	+++ (≧50 = +++)
75 (ALLDGALQL; listed as Homo sapiens) [compound 75]	+++ (≧50 = +++)
61 (ALYPKEITL; listed as Homo sapiens) [compound 61]	+++ (≧50 = +++)
38 (VLQQESNFL; listed as Homo sapiens) [compound 38]	++ (≧20% = ++)
225 (FLPQPVPLSV; listed as Homo sapiens) [compound 225]	+++ (≧50 = +++)
47 (GLNGFNVLL; listed as Homo sapiens) [compound 47]	+++ (≧50 = +++)
114 (LLFPSDVQTL; listed as Homo sapiens) [compound 114]	++ (≧20% = ++)
92 (RLFEEVLGV; listed as Homo sapiens) [compound 92]	++++ (≧75% = ++++)
229 (YLYELEHAL; listed as Homo sapiens) [compound 229]	++ (≧20% = ++)
126 (QLREAFEQL; listed as Homo sapiens) [compound 126]	+++ (≧50 = +++)
168 (VIFEGEPMYL; listed as Homo sapiens) [compound 168]	+++ (≧50 = +++)
192 (TLLPSSGLVTL; listed as Homo sapiens) [compound 192]	++ (≧20% = ++)
226 (SLAGNLQEL; listed as Homo sapiens) [compound 226]	+++ (≧50 = +++)
76 (FTAEFLEKV; listed as Homo sapiens) [compound 76]	+++ (≧50 = +++)
60 (YLFSQGLQGL; listed as Homo sapiens) [compound 60]	+++ (≧50 = +++)
81 (ILAEEPIYI; listed as Homo sapiens) [compound 81]	++ (≧20% = ++)

Substance	Peptide exchange (MHC class I binding score, peptide exchange yield)
190 (SLSTELFKV; listed as Homo sapiens) [compound 190]	+++ (≧50 = +++)
252 (SLMEKNQSL; listed as Homo sapiens) [compound 252]	++ (≧20% = ++)
95 (KLIDEDEPLFL; listed as Homo sapiens) [compound 95]	+++ (≧50 = +++)
16 (SLADLSLLL; listed as Homo sapiens) [compound 16]	+++ (≧50 = +++)
231 (LLDDIFIRL; listed as Homo sapiens) [compound 231]	+++ (≧50 = +++)
241 (KQFEGTVEI; listed as Homo sapiens) [compound 241]	+++ (≧50 = +++)
216 (ALSTVTPRI; listed as Homo sapiens) [compound 216]	++ (≧20% = ++)
178 (SLVSWQLLL; listed as Homo sapiens) [compound 178]	++++ (≧75% = ++++)
117 (TLLEGISRA; listed as Homo sapiens) [compound 117]	++ (≧20% = ++)
167 (LVVDEGSLVSV; listed as Homo sapiens) [compound 167]	+++ (≧50 = +++)
198 (ILTNKVVSV; listed as Homo sapiens) [compound 198]	++ (≧20% = ++)
270 (TLLTFFHEL; listed as Homo sapiens) [compound 270]	+++ (≧50 = +++)
143 (MLWESIMRV; listed as Homo sapiens) [compound 143]	+++ (≧50 = +++)
149 (NMADGQLHQV; listed as Homo sapiens) [compound 149]	++ (≧20% = ++)
166 (LLGDSSFFL; listed as Homo sapiens) [compound 166]	+++ (≧50 = +++)
5 (GLVDIMVHL; listed as Homo sapiens) [compound 5]	+++ (≧50 = +++)
96 (ALDTTRHEL; listed as Homo sapiens) [compound 96]	++ (≧20% = ++)
220 (ALSELERVL; listed as Homo sapiens) [compound 220]	+++ (≧50 = +++)
277 (KLQEELNKV; listed as Homo sapiens) [compound 277]	+++ (≧50 = +++)
249 (YLYQILQGI; listed as Homo sapiens) [compound 249]	+++ (≧50 = +++)
